Results reported in publication PMC9621694.

Biological target: purified trimeric native F protein of respiratory syncytial virus (respiratory syncytial virus) (UniProt P03420)
Test: SPR; normalized maximum SPR signal of purified scaffolds, point mutants and RSV-F at various concentrations of hRSV90 antibody, sigmoid fits

Sequence of purified trimeric native F protein of respiratory syncytial virus (respiratory syncytial virus) (P03420 138-513): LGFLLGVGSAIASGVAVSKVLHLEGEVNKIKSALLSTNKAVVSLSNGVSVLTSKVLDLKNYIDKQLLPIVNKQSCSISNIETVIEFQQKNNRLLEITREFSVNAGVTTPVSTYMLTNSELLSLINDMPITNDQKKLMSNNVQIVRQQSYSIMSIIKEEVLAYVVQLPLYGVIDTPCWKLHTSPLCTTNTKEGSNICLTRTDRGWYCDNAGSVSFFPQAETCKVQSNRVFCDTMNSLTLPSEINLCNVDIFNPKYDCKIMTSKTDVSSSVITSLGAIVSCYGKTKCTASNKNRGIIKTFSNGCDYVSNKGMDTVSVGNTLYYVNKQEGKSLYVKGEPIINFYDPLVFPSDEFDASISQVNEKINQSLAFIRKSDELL

neutralizing antibody hRSV90
Kd: 23 nM
